Assay [1] has as its target FcγRIIb (UniProt P31994). Description: SPR; ratio of IIb-fold to IIaR-fold, FcγRIIaR as comparison receptor.
Target sequence in this assay (P31994 43-217): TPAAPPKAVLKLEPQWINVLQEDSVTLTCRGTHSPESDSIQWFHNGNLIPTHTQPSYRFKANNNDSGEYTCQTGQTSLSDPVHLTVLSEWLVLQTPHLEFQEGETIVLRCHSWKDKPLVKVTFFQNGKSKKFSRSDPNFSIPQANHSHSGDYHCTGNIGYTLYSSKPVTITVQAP
Assay [2] deals with FcγRIIaR (UniProt P12318). Kind of assay: SPR; trastuzumab FSA variant against FSA WT v21653. A general note: In SPR one partner is held on a chip, and binding of the other changes the refractive index at the surface.
The target in assay [3] is FcγRIIb (UniProt P31994). Description: SPR; trastuzumab FSA variant against FSA WT v21653.
Target sequence in this assay (P31994 43-217): as above
For assay [4], the target named is C1q (human) (UniProt P02745). Kind of assay: ELISA; antibody coated, human C1q added, signal as % of WT. (In an ELISA, binding on a coated surface is turned into a signal by an enzyme label.)
Assay [5] addresses FcγRIIb (UniProt P31994). Kind of assay: SPR (Protocol 1); IIb-Fold over IIaR-Fold.
Target sequence in this assay (P31994 43-217 limits assumed): as the sequence (P31994 43-217) above
The target of assay [6] is FcγRIIaR (UniProt P12318). Kind of assay: SPR (Protocol 1), one-armed antibody captured on HER2, receptor as analyte; fold over wild-type.
In assay [7] the target is FcγRIIb (UniProt P31994). The description is as above.
Target sequence in this assay (P31994 43-217 limits assumed): as the sequence (P31994 43-217) above
Assay [8] deals with FcγRIIb, soluble extracellular domain (UniProt P31994). Kind of assay: SPR (Biacore 4000, Protocol 2): antibody captured on immobilised HER2, soluble receptor as analyte.
For assay [9], the target named is FcγRIIaR, soluble extracellular domain (UniProt P12318). The assay is described as above.

Usually Kd stands for a measure of binding affinity in units of concentration.

C1q (human), sequence (P02745 23-245 limits assumed, chain 1 of 3): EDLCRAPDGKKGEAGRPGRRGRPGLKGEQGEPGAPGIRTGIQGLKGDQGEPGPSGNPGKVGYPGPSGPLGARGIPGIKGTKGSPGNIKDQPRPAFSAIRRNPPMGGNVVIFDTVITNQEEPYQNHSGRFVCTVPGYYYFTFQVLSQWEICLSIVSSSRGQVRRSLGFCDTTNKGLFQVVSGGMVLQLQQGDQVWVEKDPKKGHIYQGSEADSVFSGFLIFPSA
C1q (human), sequence (P02746 28-253 limits assumed, chain 2 of 3, further chain): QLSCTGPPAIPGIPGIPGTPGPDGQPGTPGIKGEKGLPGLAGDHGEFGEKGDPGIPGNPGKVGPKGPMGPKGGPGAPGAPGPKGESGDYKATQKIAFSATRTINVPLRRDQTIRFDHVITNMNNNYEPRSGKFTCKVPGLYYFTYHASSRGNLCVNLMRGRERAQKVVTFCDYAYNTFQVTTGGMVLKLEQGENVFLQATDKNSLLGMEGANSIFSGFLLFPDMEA
C1q (human), sequence (P02747 29-245 limits assumed, chain 3 of 3, further chain): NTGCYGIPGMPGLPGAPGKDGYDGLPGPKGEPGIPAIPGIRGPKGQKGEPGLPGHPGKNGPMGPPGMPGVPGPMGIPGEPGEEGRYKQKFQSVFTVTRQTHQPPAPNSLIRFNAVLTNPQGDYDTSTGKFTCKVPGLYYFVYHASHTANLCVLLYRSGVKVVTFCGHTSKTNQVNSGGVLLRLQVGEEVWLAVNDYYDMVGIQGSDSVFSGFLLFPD
FcγRIIb, soluble extracellular domain, sequence (P31994 43-217): as the sequence (P31994 43-217) above
FcγRIIaR, sequence (P12318 34-217): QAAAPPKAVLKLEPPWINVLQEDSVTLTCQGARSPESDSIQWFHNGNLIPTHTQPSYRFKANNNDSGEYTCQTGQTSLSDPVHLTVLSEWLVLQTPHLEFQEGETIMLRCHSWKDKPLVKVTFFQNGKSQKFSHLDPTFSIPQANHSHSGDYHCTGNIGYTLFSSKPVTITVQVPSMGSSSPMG
FcγRIIaR, soluble extracellular domain, sequence (P12318 34-217): as above

With “Variant 32274 (trastuzumab FSA; chain A P329A_strat2, chain B G237L_strat2) (antibody)”, in assay [1], the IIb Selectivity (IIb-Fold/IIaR-Fold) came to 26. Further, the IIaR-fold (fold change in affinity over wild-type) in assay [2] came out at 4 fold over WT. In assay [3], the IIb-fold (fold change in affinity over wild-type) was determined as 95 fold over WT. In addition, in assay [4], the C1q Binding (% WT) was 2 % WT.

Take “Variant 32259 (trastuzumab FSA; chain A A237N_strat1, chain B G330*K_strat1) (antibody)”: the IIb Selectivity (IIb-Fold/IIaR-Fold) in assay [1] amounted to 33. The substance further returned an IIaR-fold (fold change in affinity over wild-type) in assay [2] of 14 fold over WT. The substance also returned an IIb-fold (fold change in affinity over wild-type) in assay [3] of 452 fold over WT. For the same substance, the C1q Binding (% WT) in [4] stood at 192 % WT.

Substance “variant 16488, one-armed trastuzumab antibody (Scaffold 2), chain B E269K_G236D” yielded an IIb/IIaR Selectivity in assay [5] of 0.91. For the same substance, the IIaR-Fold (fold affinity over wild-type) in assay [6] was found to be 0.17 fold. For the same substance, the IIb-Fold (fold affinity over wild-type) in [7] worked out at 0.16 fold.

In assay [5], “variant 16550, one-armed trastuzumab antibody (Scaffold 2), chain A E269K, chain B L234D” returned an IIb/IIaR Selectivity of 1.25. The IIaR-Fold (fold affinity over wild-type) in assay [6] turned out to be 0.63 fold. In [7], the IIb-Fold (fold affinity over wild-type) came out at 0.79 fold.

For the substance “variant 16570, one-armed trastuzumab antibody (Scaffold 2), chain B E269K_L234F”, the IIb/IIaR Selectivity in assay [5] is 3.35. Further, the IIaR-Fold (fold affinity over wild-type) in assay [6] came out at 0.11 fold. In addition, the IIb-Fold (fold affinity over wild-type) in assay [7] worked out at 0.37 fold.

For “variant 16531, one-armed trastuzumab antibody (Scaffold 2), chain B E269K_S267I”, the IIb/IIaR Selectivity in [5] amounted to 1.45. For the same substance, the IIaR-Fold (fold affinity over wild-type) in assay [6] was 0.19 fold. Besides, in assay [7], the IIb-Fold (fold affinity over wild-type) came to 0.27 fold.

In turn, “variant 16549, one-armed trastuzumab antibody (Scaffold 2), chain B E269K_L234D” came in with an IIb/IIaR Selectivity in [5] of 1.83. In assay [6], the IIaR-Fold (fold affinity over wild-type) stood at 0.19 fold. Further, the IIb-Fold (fold affinity over wild-type) in assay [7] was found to be 0.35 fold.

“variant 16491, one-armed trastuzumab antibody (Scaffold 2), chain B E269K_G236N” gave an IIb/IIaR Selectivity in assay [5] of 2.48. Moreover, the IIaR-Fold (fold affinity over wild-type) in assay [6] was found to be 0.1 fold. Besides, the IIb-Fold (fold affinity over wild-type) in [7] was 0.24 fold.

For the substance “Variant 26730 (A_P271V_strat2), one-armed trastuzumab antibody with heterodimeric IgG1 Fc”, the Kd stood at 27 nM in [8] and 85 nM in [9].

For the substance “Variant 32271 (trastuzumab FSA; chain A G237L_strat2, chain B G237L_strat2) (antibody)”, the IIb Selectivity (IIb-Fold/IIaR-Fold) in [1] was 26. Moreover, the IIaR-fold (fold change in affinity over wild-type) in assay [2] is 10 fold over WT. Further, in [3], the IIb-fold (fold change in affinity over wild-type) was 251 fold over WT. The substance further showed a C1q Binding (% WT) in assay [4] of 3 % WT.

In the case of “Variant 32279 (trastuzumab FSA; chain A S267K_strat2, chain B G237L_strat2) (antibody)”, in [1], the IIb Selectivity (IIb-Fold/IIaR-Fold) turned out to be 19. The IIaR-fold (fold change in affinity over wild-type) in assay [2] was 3 fold over WT. The IIb-fold (fold change in affinity over wild-type) in assay [3] came out at 53 fold over WT. The same substance had a C1q Binding (% WT) in assay [4] of 1 % WT.

Take “Variant 26728 (A_P271G_strat2), one-armed trastuzumab antibody with heterodimeric IgG1 Fc”: the Kd in [8] turned out to be 22 nM; in [9], 64 nM.

As to “Variant 26723 (A_D270E_strat2), one-armed trastuzumab antibody with heterodimeric IgG1 Fc”, the figures for the Kd in [8] and in assay [9] were 13 nM and 42 nM, respectively.

“variant 16532, one-armed trastuzumab antibody (Scaffold 2), chain A E269K, chain B S267I” returned an IIb/IIaR Selectivity in assay [5] of 1.84. Moreover, the IIaR-Fold (fold affinity over wild-type) in assay [6] was determined as 0.51 fold. Besides, the IIb-Fold (fold affinity over wild-type) in assay [7] is 0.95 fold.

For the substance “Variant 26729 (A_P271A_strat2), one-armed trastuzumab antibody with heterodimeric IgG1 Fc”, the Kd in assay [8] was determined as 34 nM; in assay [9] it was 93 nM.

As to “Variant 32262 (trastuzumab FSA; chain A L234T_strat1, chain B G330*K_strat1) (antibody)”, in [1], the IIb Selectivity (IIb-Fold/IIaR-Fold) came to 31. For the same substance, in [2], the IIaR-fold (fold change in affinity over wild-type) was 22 fold over WT. The same substance displayed an IIb-fold (fold change in affinity over wild-type) in [3] of 697 fold over WT. In assay [4], this substance showed a C1q Binding (% WT) of 210 % WT.

In the case of “variant 16577, one-armed trastuzumab antibody (Scaffold 2), chain A E269K, chain B A327G_A330S_P331S_L234F_H268Q_K274Q”, in assay [5], the IIb/IIaR Selectivity was determined as 1.26. Besides, the IIaR-Fold (fold affinity over wild-type) in assay [6] is 0.82 fold. The IIb-Fold (fold affinity over wild-type) in assay [7] amounted to 1.03 fold.

Take “variant 16489, one-armed trastuzumab antibody (Scaffold 2), chain A E269K, chain B G236D”: the IIb/IIaR Selectivity in assay [5] is 2.1. In [6], the IIaR-Fold (fold affinity over wild-type) amounted to 0.41 fold. For the same substance, the IIb-Fold (fold affinity over wild-type) in assay [7] turned out to be 0.85 fold.

In [5], “variant 16492, one-armed trastuzumab antibody (Scaffold 2), chain A E269K, chain B G236N” displayed an IIb/IIaR Selectivity of 1.83. Further, the IIaR-Fold (fold affinity over wild-type) in [6] was determined as 0.07 fold. The IIb-Fold (fold affinity over wild-type) in assay [7] was determined as 0.13 fold.

As to “Variant 26739 (A_P271N_strat2), one-armed trastuzumab antibody with heterodimeric IgG1 Fc”, the values for the equilibrium dissociation constant (Kd) in assay [8] and in [9] were 28 nM and 90 nM, respectively.

“variant 16571, one-armed trastuzumab antibody (Scaffold 2), chain A E269K, chain B L234F” displayed an IIb/IIaR Selectivity in assay [5] of 0.97. Besides, the IIaR-Fold (fold affinity over wild-type) in [6] is 0.42 fold. For the same substance, the IIb-Fold (fold affinity over wild-type) in assay [7] is 0.4 fold.

Take “Variant 26731 (A_P271L_strat2), one-armed trastuzumab antibody with heterodimeric IgG1 Fc”: the Kd came out at 22 nM in assay [8] and 68 nM in [9].

For the substance “Variant 26735 (A_P271Y_strat2), one-armed trastuzumab antibody with heterodimeric IgG1 Fc”, the Kd in assay [8] was determined as 35 nM; in [9], 110 nM.

As to “Variant 26721 (A_D270Q_strat2), one-armed trastuzumab antibody with heterodimeric IgG1 Fc”, the Kd in [8] was 28 nM; in assay [9], 87 nM.

Turning to “variant 16576, one-armed trastuzumab antibody (Scaffold 2), chain B E269K_A327G_A330S_P331S_L234F_H268Q_K274Q”, in assay [5], the IIb/IIaR Selectivity was determined as 1.89. Moreover, the IIaR-Fold (fold affinity over wild-type) in assay [6] turned out to be 0.11 fold. Further, the IIb-Fold (fold affinity over wild-type) in assay [7] stood at 0.21 fold.

“Variant 26737 (A_P271S_strat2), one-armed trastuzumab antibody with heterodimeric IgG1 Fc”: the Kd in [8] amounted to 36 nM; in assay [9], 90 nM.

With “Variant 26722 (A_D270N_strat2), one-armed trastuzumab antibody with heterodimeric IgG1 Fc”, the dissociation constant Kd in assay [8] stood at 21 nM; in [9], 77 nM.

Source of the values: patent publication US20240294646A1.
